{"source": "paper PMC12152739", "test_system": "CC(C)(O/N=C(\\C(=O)N[C@@H]1C(=O)N2C(C(=O)[O-])=C(C[N+]3(CCNC(=O)c4ccc(O)c(O)c4Cl)CCCC3)CS[C@H]12)c1csc(N)n1)C(=O)O", "assay": "purified protein, by the assay type", "details": "other: FDC hydrolysis by VIM-2, 30 °C, pH 7.5", "data": [{"substance": "VIM-2 (Escherichia coli)", "values": [{"measurement": "kcat", "result": "1.1 ± 0.14", "unit": "s⁻¹"}]}]}
